Measured values: patent publication US20050048070A1 (published 2005)

Tests used:
[1] = molecular target: T1, bovine serum albumin (bovine, UniProt P02769 25-607); assay: ELISA on coated antigens (data not shown)
T1 construct: Irrelevant antigen in the ELISA; also called BSA

[2] = molecular target: T2, ovalbumin (UniProt P01012 2-386); assay: ELISA on coated antigens (data not shown)
T2 construct: Irrelevant antigen in the ELISA
T2 sequence (looked up): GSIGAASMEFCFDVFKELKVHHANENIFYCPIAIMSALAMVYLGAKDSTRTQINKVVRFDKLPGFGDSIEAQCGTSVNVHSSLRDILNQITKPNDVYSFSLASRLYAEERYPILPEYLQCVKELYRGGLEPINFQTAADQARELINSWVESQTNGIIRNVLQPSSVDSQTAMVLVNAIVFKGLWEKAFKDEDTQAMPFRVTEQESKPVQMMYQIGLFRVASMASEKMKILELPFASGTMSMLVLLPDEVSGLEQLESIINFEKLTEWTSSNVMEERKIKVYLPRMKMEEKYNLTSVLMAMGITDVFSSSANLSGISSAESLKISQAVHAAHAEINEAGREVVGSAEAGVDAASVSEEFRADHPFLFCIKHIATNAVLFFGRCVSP

T1 sequence (P02769 25-607 limits assumed): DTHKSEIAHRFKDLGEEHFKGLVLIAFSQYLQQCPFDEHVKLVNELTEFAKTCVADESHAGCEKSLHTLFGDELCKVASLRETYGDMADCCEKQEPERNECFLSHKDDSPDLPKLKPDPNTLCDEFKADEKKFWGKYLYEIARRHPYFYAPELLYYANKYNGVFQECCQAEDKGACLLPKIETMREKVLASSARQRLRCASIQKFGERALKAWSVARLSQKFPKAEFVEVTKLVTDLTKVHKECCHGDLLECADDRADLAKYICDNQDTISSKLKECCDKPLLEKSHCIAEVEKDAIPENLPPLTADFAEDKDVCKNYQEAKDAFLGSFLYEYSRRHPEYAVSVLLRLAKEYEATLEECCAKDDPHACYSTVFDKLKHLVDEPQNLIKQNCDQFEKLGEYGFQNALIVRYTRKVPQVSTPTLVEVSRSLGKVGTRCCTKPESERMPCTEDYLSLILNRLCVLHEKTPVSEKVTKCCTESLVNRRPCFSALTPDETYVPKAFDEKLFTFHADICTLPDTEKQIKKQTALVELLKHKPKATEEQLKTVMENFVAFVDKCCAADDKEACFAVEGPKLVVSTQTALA

B1: recombinant B9165 Fab (Fab, V domains shown)
VH: GAEVKKPGASVKVSCKASDYTFSSYYMHWVRQAPGQGLEWMGIINPSGGSTSYAQKFQGRVTMTRDTSTNTVYMELSSLRSEDTAVYYCARDQVVVAATLSNYGMDVWGQGTTVTVSS
VL: ELTQSPGTLSLSPGERATLSCRASQSVSSSYLAWYQQKPGQAPRLLIYDASNRATGIPARFSGSGSGTDFTLTISSLEPEDFAVYYCQQGTNWGIAFGQGTRLDIKR
notes: Soluble Fab (mu Fd region plus kappa light chain) cloned from hybridoma B9165 by phage display in pComb3 and expressed in E. coli; also called cloned B9165 Fab; Fab of COU-1
[1]
  binding result: no binding
[2]
  binding result: no binding
